Experimental data as given in patent US20080241166A1 (DOMANTIS, published 2008).

Experiments:
[1] = molecular target: EGFR (as used for the KD column of Table 10) (UniProt P00533 25-645, limits assumed); test: method not described
[2] = molecular target: T1, EGFR expressed on A431 cells (UniProt P00533 25-1210, limits assumed); test: cell-based or functional assay
[3] = molecular target: T1, EGFR expressed on A431 cells; test: EGFR receptor binding assay: inhibition of biotinylated EGF binding to A431 cells; highest value obtained
[4] = molecular target: T1, EGFR expressed on A431 cells; test: EGFR receptor binding assay: inhibition of biotinylated EGF binding to A431 cells; lowest value obtained
[5] = molecular target: T1, EGFR expressed on A431 cells; test: EGFR receptor binding assay: inhibition of biotinylated EGF binding to A431 cells; average
mouse serum albumin = molecular target: T2, mouse serum albumin (mouse, UniProt P07724 25-608); test: capture ELISA: dAb on protein A, biotinylated MSA, streptavidin HRP
T2 construct: Biotinylated (about 2 biotins per molecule) in the capture ELISA; unlabelled on the CM5 chip; also called MSA; biotinylated MSA

[6] = molecular target: T3, human TNFR1 (human p55 TNF receptor) (human, UniProt P19438 30-211, limits assumed); test: selection from dAb libraries
T3 construct: also called TNF receptor 1; TNFα receptor
T3 sequence: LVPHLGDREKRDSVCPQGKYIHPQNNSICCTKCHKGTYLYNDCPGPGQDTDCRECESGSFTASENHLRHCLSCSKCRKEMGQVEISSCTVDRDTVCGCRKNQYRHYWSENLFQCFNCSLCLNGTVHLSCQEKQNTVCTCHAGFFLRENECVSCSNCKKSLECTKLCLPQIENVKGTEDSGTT

T2 sequence (P07724 25-608 limits assumed): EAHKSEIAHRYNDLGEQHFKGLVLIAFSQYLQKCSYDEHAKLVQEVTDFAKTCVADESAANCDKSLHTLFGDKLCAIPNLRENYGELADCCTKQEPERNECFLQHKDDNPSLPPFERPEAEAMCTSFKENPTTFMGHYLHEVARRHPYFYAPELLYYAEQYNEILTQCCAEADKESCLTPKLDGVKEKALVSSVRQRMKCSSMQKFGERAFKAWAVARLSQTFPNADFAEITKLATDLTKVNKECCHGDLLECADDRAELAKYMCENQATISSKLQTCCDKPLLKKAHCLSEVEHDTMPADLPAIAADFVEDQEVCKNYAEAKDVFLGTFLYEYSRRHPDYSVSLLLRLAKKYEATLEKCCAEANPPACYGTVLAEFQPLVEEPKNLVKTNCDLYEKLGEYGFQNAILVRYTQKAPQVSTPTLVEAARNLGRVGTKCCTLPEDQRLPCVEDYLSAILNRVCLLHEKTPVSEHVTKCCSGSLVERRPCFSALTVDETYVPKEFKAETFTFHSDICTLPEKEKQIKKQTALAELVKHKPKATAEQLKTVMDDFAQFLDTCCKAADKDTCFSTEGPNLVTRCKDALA

B1: DOM16-39-109 (other)
chain: DIQMTQSPTSLSASVGDRVTITCRASQWIGNLLDWYQQKPGEAPKLLIYYASFLQSGVPSRFSGGGFGTDFTLTISSLQPEDFATYYCQQANPAPLTFGQGTKVEIKR
notes: anti-EGFR dAb
Q: Which Kd [1] does the source give for B1 here?
A: 1.01 nM

Q: And the “KINASE ASSAY IC50, average” value [2]?
A: 8.69 nM

Q: What about the “KINASE ASSAY IC50, highest value” [2] of the same binder?
A: 11.1 nM

Q: What about the “KINASE ASSAY IC50, lowest value” [2] of the same binder?
A: 6.82 nM

Q: What about the IC50 [3] of the same binder?
A: 1.47 nM

Q: What about the IC50 [4] of the same binder?
A: 0.746 nM

Q: What about the IC50 [5] of the same binder?
A: 1.05 nM

B2: anti-serum albumin VH dAb, clones 8, 10 (other)
VH: EVQLLESGGGLVQPGGSLRLSCAASGFTFWVYQMDWVRQAPGKGLEWVSSISAFGAKTLYADSVKGRFTISRDNSKNTLYLQMNSLRAEDTAVYYCAKLSGKFDYWGQGTLVTVSS
notes: dAb
Q: Does B2 bind (mouse serum albumin)?
A: binds

B3: anti-serum albumin VH dAb, clone 36 (other)
VH: EVQLLESGGGLVQPGGSLRLSCAASGFTFWSYQMTWVRQAPGKGLEWVSSISSFGSSTLYADSVKGRFTISRDNSKNTLYLQMNSLRAEDTAVYYCAKGRDHNYSLFDYWGQGTLVTVSS
notes: ranges to be checked
Q: Does B3 bind (mouse serum albumin)?
A: binds

B4: TAR2h-5 VH dAb (other)
VH: EVQLLESGGGLVQPGGSLRLSCAASGFTFDLYNMFWVRQAPGKGLEWVSFISQTGRLTWYADSVKGRFTISRDNSKNTLYLQMNSLRAEDTAVYYCAKTLEDFDYWGQGTLVTVSS
notes: TAR2-5 and TAR2h-5 are used for the same dAb; also called TAR2-5
Q: Does B4 bind [6]?
A: binds
